Experimental data published in IntAct's records for PubMed 25910212.

B1: E3 ubiquitin-protein ligase Midline-1 (Homo sapiens), O15344 (parent)
chain: METLESELTCPICLELFEDPLLLPCAHSLCFNCAHRILVSHCATNESVESITAFQCPTCRHVITLSQRGLDGLKRNVTLQNIIDRFQKASVSGPNSPSETRRERAFDANTMTSAEKVLCQFCDQDPAQDAVKTCVTCEVSYCDECLKATHPNKKPFTGHRLIEPIPDSHIRGLMCLEHEDEKVNMYCVTDDQLICALCKLVGRHRDHQVAALSERYDKLKQNLESNLTNLIKRNTELETLLAKLIQTCQHVEVNASRQEAKLTEECDLLIEIIQQRRQIIGTKIKEGKVMRLRKLAQQIANCKQCIERSASLISQAEHSLKENDHARFLQTAKNITERVSMATASSQVLIPEINLNDTFDTFALDFSREKKLLECLDYLTAPNPPTIREELCTASYDTITVHWTSDDEFSVVSYELQYTIFTGQANVVSLCNSADSWMIVPNIKQNHYTVHGLQSGTKYIFMVKAINQAGSRSSEPGKLKTNSQPFKLDPKSAHRKLKVSHDNLTVERDESSSKKSHTPERFTSQGSYGVAGNVFIDSGRHYWEVVISGSTWYAIGLAYKSAPKHEWIGKNSASWALCRCNNNWVVRHNSKEIPIEPAPHLRRVGILLDYDNGSIAFYDALNSIHLYTFDVAFAQPVCPTFTVWNKCLTIITGLPIPDHLDCTEQLP
B2: U4/U6 small nuclear ribonucleoprotein Prp31 (Homo sapiens), Q8WWY3 (parent)
chain: MSLADELLADLEEAAEEEEGGSYGEEEEEPAIEDVQEETQLDLSGDSVKTIAKLWDSKMFAEIMMKIEEYISKQAKASEVMGPVEAAPEYRVIVDANNLTVEIENELNIIHKFIRDKYSKRFPELESLVPNALDYIRTVKELGNSLDKCKNNENLQQILTNATIMVVSVTASTTQGQQLSEEELERLEEACDMALELNASKHRIYEYVESRMSFIAPNLSIIIGASTAAKIMGVAGGLTNLSKMPACNIMLLGAQRKTLSGFSSTSVLPHTGYIYHSDIVQSLPPDLRRKAARLVAAKCTLAARVDSFHESTEGKVGYELKDEIERKFDKWQEPPPVKQVKPLPAPLDGQRKKRGGRRYRKMKERLGLTEIRKQANRMSFGEIEEDAYQEDLGFSLGHLGKSGSGRVRQTQVNEATKARISKTLQRTLQKQSVVYGGKSTIRDRSSGTASSVAFTPLQGLEIVNPQAAEKKVAEANQKYFSSMAEFLKVKGEKSGLMST
partner: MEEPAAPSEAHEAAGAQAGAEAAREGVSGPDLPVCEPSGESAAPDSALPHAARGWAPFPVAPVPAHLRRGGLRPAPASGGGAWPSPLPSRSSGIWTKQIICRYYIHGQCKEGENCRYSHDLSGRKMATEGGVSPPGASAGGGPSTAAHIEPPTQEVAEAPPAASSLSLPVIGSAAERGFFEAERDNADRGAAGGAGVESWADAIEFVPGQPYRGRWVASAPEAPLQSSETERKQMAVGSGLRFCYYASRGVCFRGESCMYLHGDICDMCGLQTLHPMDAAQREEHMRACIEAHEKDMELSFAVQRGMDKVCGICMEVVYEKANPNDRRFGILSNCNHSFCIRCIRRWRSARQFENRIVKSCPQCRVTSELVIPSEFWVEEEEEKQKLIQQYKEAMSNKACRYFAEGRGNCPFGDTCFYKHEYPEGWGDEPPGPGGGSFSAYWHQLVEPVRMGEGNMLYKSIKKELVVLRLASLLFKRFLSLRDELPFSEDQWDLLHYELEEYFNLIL
B3: Beta-crystallin B1 (Homo sapiens), P53674 (parent)
chain: MSQAAKASASATVAVNPGPDTKGKGAPPAGTSPSPGTTLAPTTVPITSAKAAELPPGNYRLVVFELENFQGRRAEFSGECSNLADRGFDRVRSIIVSAGPWVAFEQSNFRGEMFILEKGEYPRWNTWSSSYRSDRLMSFRPIKMDAQEHKISLFEGANFKGNTIEIQGDDAPSLWVYGFSDRVGSVKVSSGTWVGYQYPGYRGYQYLLEPGDFRHWNEWGAFQPQMQSLRRLRDKQWHLEGSFPVLATEPPK
partner: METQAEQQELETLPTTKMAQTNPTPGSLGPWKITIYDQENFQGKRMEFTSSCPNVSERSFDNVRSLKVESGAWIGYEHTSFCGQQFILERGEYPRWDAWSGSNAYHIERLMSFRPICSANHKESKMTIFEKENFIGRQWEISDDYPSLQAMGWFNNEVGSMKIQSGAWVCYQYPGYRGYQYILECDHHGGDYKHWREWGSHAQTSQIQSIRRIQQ
B4: Adiponectin (Homo sapiens), Q15848 (parent)
chain: MLLLGAVLLLLALPGHDQETTTQGPGVLLPLPKGACTGWMAGIPGHPGHNGAPGRDGRDGTPGEKGEKGDPGLIGPKGDIGETGVPGAEGPRGFPGIQGRKGEPGEGAYVYRSAFSVGLETYVTIPNMPIRFTKIFYNQQNHYDGSTGKFHCNIPGLYYFAYHITVYMKDVKVSLFKKDKAMLFTYDQYQENNVDQASGSVLLHLEVGDQVWLQVYGEGERNGLYADNDNDSTFTGFLLYHDTN
partner: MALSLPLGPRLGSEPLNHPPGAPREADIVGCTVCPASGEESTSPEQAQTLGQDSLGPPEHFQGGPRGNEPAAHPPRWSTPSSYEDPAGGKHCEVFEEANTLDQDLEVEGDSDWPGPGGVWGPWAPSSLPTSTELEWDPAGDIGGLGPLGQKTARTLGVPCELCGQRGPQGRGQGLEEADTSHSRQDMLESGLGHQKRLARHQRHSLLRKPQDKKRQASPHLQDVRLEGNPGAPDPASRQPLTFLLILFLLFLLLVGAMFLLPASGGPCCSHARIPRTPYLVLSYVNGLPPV
B5: U4/U6 small nuclear ribonucleoprotein Prp31 (Homo sapiens), Q8WWY3 (parent)
chain: B2 chain
partner: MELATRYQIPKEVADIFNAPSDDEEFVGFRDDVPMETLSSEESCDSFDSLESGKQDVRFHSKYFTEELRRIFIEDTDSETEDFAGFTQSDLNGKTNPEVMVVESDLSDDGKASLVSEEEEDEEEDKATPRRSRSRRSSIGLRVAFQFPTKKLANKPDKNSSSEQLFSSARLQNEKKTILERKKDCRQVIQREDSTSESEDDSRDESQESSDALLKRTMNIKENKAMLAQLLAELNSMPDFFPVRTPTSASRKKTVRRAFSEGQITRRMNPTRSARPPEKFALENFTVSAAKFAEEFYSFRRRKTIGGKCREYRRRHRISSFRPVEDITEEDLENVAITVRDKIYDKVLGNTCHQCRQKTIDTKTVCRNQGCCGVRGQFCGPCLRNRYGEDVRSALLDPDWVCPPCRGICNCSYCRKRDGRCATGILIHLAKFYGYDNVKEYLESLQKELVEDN

Variants of: B1
Conditions: with meox1_human MEOX1, P50221
Chain of meox1_human MEOX1, P50221 (P50221 whole entry): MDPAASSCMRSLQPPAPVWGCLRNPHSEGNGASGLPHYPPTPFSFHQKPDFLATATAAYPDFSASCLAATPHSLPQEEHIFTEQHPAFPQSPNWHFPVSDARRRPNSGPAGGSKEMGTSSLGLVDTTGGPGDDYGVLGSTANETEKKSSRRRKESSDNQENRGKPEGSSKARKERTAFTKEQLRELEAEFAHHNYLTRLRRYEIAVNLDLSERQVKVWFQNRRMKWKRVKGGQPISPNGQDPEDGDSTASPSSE

Variant | effect of a mutation on the interaction
L626P | with no effect
P151L | with no effect

Variants of: B2
Conditions: with mkrn3_human MKRN3, Q13064

Variant | effect of a mutation on the interaction
MSLADELLADLEEAAEEEEGGSYGEEEEEPAIEDVQEETQLDLSGDSVKTIAKLWDSKMFAEIMMKIEEYISKQAKASEVMGPVEAAPEYRVIVDANNLTVEIENEVNIIHKFIRDKYSKRFPELESLVPNALDYIRTVKELGNSLDKCKNNENLQQILTNATIMVVSVTASTTQGQQLSEEELERLEEACDMALELNASKHRIYEYVESRMSFIAPNLSIIIGASTAAKIMGVAGGLTNLSKMPACNIMLLGAQRKTLSGFSSTSVLPHTGYIYHSDIVQSLPPDLRRKAARLVAAKCTLAARVDSFHESTEGKVGYELKDEIERKFDKWQEPPPVKQVKPLPAPLDGQRKKRGGRRYRKMKERLGLTEIRKQANRMSFGEIEEDAYQEDLGFSLGHLGKSGSGRVRQTQVNEATKARISKTLQRTLQKQSVVYGGKSTIRDRSSGTASSVAFTPLQGLEIVNPQAAEKKVAEANQKYFSSMAEFLKVKGEKSGLMST [L107V] | with no effect

Variants of: B3
Conditions: with crba1_human CRYBA1, P05813

Variant | effect of a mutation on the interaction
MSQAAKASASATVAVNPGPDTKGKGAPPAGTSPSPGTTLAPTTVPITSAKAAELPPGNYRLVVFELENFQGRRAEFSGECSNLADRGFDRVRSIIVSAGPWVAFEQSNFRGEMFILEKGEYPRWNTWSSSYRSDRLMSFRPIKMDAQEHKISLFEGANFKGNTIEIQGDDAPSLWVYGFSDRVGSVKVSSGTWVGYQYPGYRGYQYLLEPGDFRHWNEWGAFQPQMQPLRRLRDKQWHLEGSFPVLATEPPK [S228P] | disrupting interaction strength

Variants of: B4
Conditions: with SYNE4, Q8N205-2

Variant | effect of a mutation on the interaction
I164T | with no effect
Y111H | with no effect

Variants of: B5
Conditions: with CDCA7L

Variant | effect of a mutation on the interaction
MSLADELLADLEEAAEEEEGGSYGEEEEEPAIEDVQEETQLDLSGDSVKTIAKLWDSKMFAEIMMKIEEYISKQAKASEVMGPVEAAPEYRVIVDANNLTVEIENEVNIIHKFIRDKYSKRFPELESLVPNALDYIRTVKELGNSLDKCKNNENLQQILTNATIMVVSVTASTTQGQQLSEEELERLEEACDMALELNASKHRIYEYVESRMSFIAPNLSIIIGASTAAKIMGVAGGLTNLSKMPACNIMLLGAQRKTLSGFSSTSVLPHTGYIYHSDIVQSLPPDLRRKAARLVAAKCTLAARVDSFHESTEGKVGYELKDEIERKFDKWQEPPPVKQVKPLPAPLDGQRKKRGGRRYRKMKERLGLTEIRKQANRMSFGEIEEDAYQEDLGFSLGHLGKSGSGRVRQTQVNEATKARISKTLQRTLQKQSVVYGGKSTIRDRSSGTASSVAFTPLQGLEIVNPQAAEKKVAEANQKYFSSMAEFLKVKGEKSGLMST [L107V] | with no effect
